# Literature values as cited in article PMC4465285.
# Columns and labels:
# [1] = target: F-actin (Saccharomyces cerevisiae) (UniProt P60010); experiment: fluorescence titration and cosedimentation
# [2] = target: F-actin (Oryctolagus cuniculus) (UniProt P68135)
Kd [1],Kd [2],Substance
16 nM,–,Cofilin-1 (from UniProt P23528)
–,200 nM,Drebrin 1-300 (from UniProt Q16643)
